In patent publication US20090226432A1 (MICROMET, published 2009):

T1: soluble human CEA antigen (human, UniProt P06731 35-685, limits assumed, biotinylated with EZ-Link Sulfo NHS-LC-LC-Biotin in the ELISA (not in the cytotoxicity competition assays))
T1 construct: also called soluble CEA; soluble biotinylated human CEA (Abcam)
T1 sequence: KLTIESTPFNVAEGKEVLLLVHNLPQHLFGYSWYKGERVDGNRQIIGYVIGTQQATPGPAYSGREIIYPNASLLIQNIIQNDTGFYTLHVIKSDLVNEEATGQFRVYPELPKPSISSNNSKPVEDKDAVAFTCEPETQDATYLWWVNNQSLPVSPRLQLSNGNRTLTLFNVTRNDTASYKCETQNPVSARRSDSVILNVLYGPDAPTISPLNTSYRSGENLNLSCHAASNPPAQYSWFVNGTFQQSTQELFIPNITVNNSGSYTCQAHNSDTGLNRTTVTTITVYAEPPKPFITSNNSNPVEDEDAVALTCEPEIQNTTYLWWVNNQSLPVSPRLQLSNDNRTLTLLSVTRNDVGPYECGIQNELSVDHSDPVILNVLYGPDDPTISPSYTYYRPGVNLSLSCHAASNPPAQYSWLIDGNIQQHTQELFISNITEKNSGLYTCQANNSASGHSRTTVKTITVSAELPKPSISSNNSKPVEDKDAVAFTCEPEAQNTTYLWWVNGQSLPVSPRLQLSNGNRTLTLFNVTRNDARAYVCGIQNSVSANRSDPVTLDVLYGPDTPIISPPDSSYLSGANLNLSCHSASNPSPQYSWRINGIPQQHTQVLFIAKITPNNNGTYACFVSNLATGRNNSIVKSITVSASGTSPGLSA

B1: SEQ ID NO. 77 VHVL x CEA I VLVH (bispecific antibody)
chain: DVQLVQSGAEVKKPGASVKVSCKASGYTFTRYTMHWVRQAPGQGLEWIGYINPSRGYTNYADSVKGRFTITTDKSTSTAYMELSSLRSEDTATYYCARYYDDHYCLDYWGQGTTVTVSSGEGTSTGSGGSGGSGGADDIVLTQSPATLSLSPGERATLSCRASQSVSYMNWYQQKPGKAPKRWIYDTSKVASGVPARFSGSGSGTDYSLTINSLEAEDAATYYCQQWSSNPLTFGGGTKVEIKSGGGGSDIELTQSPAILSASPGEKVTMTCRASSSVTYIHWYQQKPGSSPKSWIYATSNLASGVPARFSGSGSGTSYSLTISRVEAEDAATYYCQHWSSKPPTFGGGTKLEIKGGGGSGGGGSGGGGSQVQLQESGGGLVQPGGSLRLSCATSGFTFTDYYMNWVRQPPGKALEWLGFIGNKANGYTTEYSASVKGRFTISRDKSQSILYLQMNTLRAEDSATYYCTRDRGLRFYFDYWGQGTTVTVSS
notes: Bispecific single chain antibody, anti-CD3 part N-terminal, anti-CEA part from mAb A5B7
B2: CEA I VLVH x SEQ ID NO. 77 VHVL (bispecific antibody)
chain: DIELTQSPAILSASPGEKVTMTCRASSSVTYIHWYQQKPGSSPKSWIYATSNLASGVPARFSGSGSGTSYSLTISRVEAEDAATYYCQHWSSKPPTFGGGTKLEIKGGGGSGGGGSGGGGSQVQLQESGGGLVQPGGSLRLSCATSGFTFTDYYMNWVRQPPGKALEWLGFIGNKANGYTTEYSASVKGRFTISRDKSQSILYLQMNTLRAEDSATYYCTRDRGLRFYFDYWGQGTTVTVSSGGGGSDVQLVQSGAEVKKPGASVKVSCKASGYTFTRYTMHWVRQAPGQGLEWIGYINPSRGYTNYADSVKGRFTITTDKSTSTAYMELSSLRSEDTATYYCARYYDDHYCLDYWGQGTTVTVSSGEGTSTGSGGSGGSGGADDIVLTQSPATLSLSPGERATLSCRASQSVSYMNWYQQKPGKAPKRWIYDTSKVASGVPARFSGSGSGTDYSLTINSLEAEDAATYYCQQWSSNPLTFGGGTKVEIK
notes: Bispecific single chain antibody; anti-CEA part from murine mAb A5B7; also called CEA I-LH
B3: CEA III VHVL x SEQ ID NO. 77 VHVL (bispecific antibody)
chain: QVKLQQSGAELVRSGTSVKLSCTASGFNIKDSYMHWLRQGPEQGLEWIGWIDPENGDTEYAPKFQGKATFTTDTSSNTAYLQLSSLTSEDTAVYYCNEGTPTGPYYFDYWGQGTTVTVSSGGGGSGGGGSGGGGSENVLTQSPAIMSASPGEKVTITCSASSSVSYMHWFQQKPGTSPKLWIYSTSNLASGVPARFSGSGSGTSYSLTISRMEAEDAATYYCQQRSSYPLTFGAGTKLELKSGGGGSDVQLVQSGAEVKKPGASVKVSCKASGYTFTRYTMHWVRQAPGQGLEWIGYINPSRGYTNYADSVKGRFTITTDKSTSTAYMELSSLRSEDTATYYCARYYDDHYCLDYWGQGTTVTVSSGEGTSTGSGGSGGSGGADDIVLTQSPATLSLSPGERATLSCRASQSVSYMNWYQQKPGKAPKRWIYDTSKVASGVPARFSGSGSGTDYSLTINSLEAEDAATYYCQQWSSNPLTFGGGTKVEIK
notes: Bispecific single chain antibody; anti-CEA part from mAb MFE-23; also called CEA III-HL
B4: CEA II VHVL x SEQ ID NO. 77 VHVL (bispecific antibody)
chain: EVQLQQSGAELVEPGASVKLSCTASGFNIKDTYMHWVKQRPEQGLEWIGRIDPANGNSKYVPKFQGKATITADTSSNTAYLQLTSLTSEDTAVYYCAPFGYYVSDYAMAYWGQGTSVTVSSGGGGSGGGGSGGGGSDIVLTQSPASLAVSLGQRATMSCRAGESVDIFGVGFLHWYQQKPGQPPKLLIYRASNLESGIPVRFSGTGSRTDFTLIIDPVEADDVATYYCQQTNEDPYTFGGGTKLEIKSGGGGSDVQLVQSGAEVKKPGASVKVSCKASGYTFTRYTMHWVRQAPGQGLEWIGYINPSRGYTNYADSVKGRFTITTDKSTSTAYMELSSLRSEDTATYYCARYYDDHYCLDYWGQGTTVTVSSGEGTSTGSGGSGGSGGADDIVLTQSPATLSLSPGERATLSCRASQSVSYMNWYQQKPGKAPKRWIYDTSKVASGVPARFSGSGSGTDYSLTINSLEAEDAATYYCQQWSSNPLTFGGGTKVEIK
notes: Bispecific single chain antibody; anti-CEA part from mAb T84.66; also called CEA II HL
B5: CEA III VLVH x SEQ ID NO. 77 VHVL (bispecific antibody)
chain: ENVLTQSPAIMSASPGEKVTITCSASSSVSYMHWFQQKPGTSPKLWIYSTSNLASGVPARFSGSGSGTSYSLTISRMEAEDAATYYCQQRSSYPLTFGAGTKLELKGGGGSGGGGSGGGGSQVKLQQSGAELVRSGTSVKLSCTASGFNIKDSYMHWLRQGPEQGLEWIGWIDPENGDTEYAPKFQGKATFTTDTSSNTAYLQLSSLTSEDTAVYYCNEGTPTGPYYFDYWGQGTTVTVSSGGGGSDVQLVQSGAEVKKPGASVKVSCKASGYTFTRYTMHWVRQAPGQGLEWIGYINPSRGYTNYADSVKGRFTITTDKSTSTAYMELSSLRSEDTATYYCARYYDDHYCLDYWGQGTTVTVSSGEGTSTGSGGSGGSGGADDIVLTQSPATLSLSPGERATLSCRASQSVSYMNWYQQKPGKAPKRWIYDTSKVASGVPARFSGSGSGTDYSLTINSLEAEDAATYYCQQWSSNPLTFGGGTKVEIK
notes: Bispecific single chain antibody; anti-CEA part from mAb MFE-23; also called CEA III-LH
B6: SEQ ID NO. 77 VHVL x CEA I VHVL (bispecific antibody)
chain: DVQLVQSGAEVKKPGASVKVSCKASGYTFTRYTMHWVRQAPGQGLEWIGYINPSRGYTNYADSVKGRFTITTDKSTSTAYMELSSLRSEDTATYYCARYYDDHYCLDYWGQGTTVTVSSGEGTSTGSGGSGGSGGADDIVLTQSPATLSLSPGERATLSCRASQSVSYMNWYQQKPGKAPKRWIYDTSKVASGVPARFSGSGSGTDYSLTINSLEAEDAATYYCQQWSSNPLTFGGGTKVEIKSGGGGSQVQLQESGGGLVQPGGSLRLSCATSGFTFTDYYMNWVRQPPGKALEWLGFIGNKANGYTTEYSASVKGRFTISRDKSQSILYLQMNTLRAEDSATYYCTRDRGLRFYFDYWGQGTTVTVSSGGGGSGGGGSGGGGSDIELTQSPAILSASPGEKVTMTCRASSSVTYIHWYQQKPGSSPKSWIYATSNLASGVPARFSGSGSGTSYSLTISRVEAEDAATYYCQHWSSKPPTFGGGTKLEIK
notes: as for B1
B7: CEA I VHVL x SEQ ID NO. 77 VHVL (bispecific antibody)
chain: QVQLQESGGGLVQPGGSLRLSCATSGFTFTDYYMNWVRQPPGKALEWLGFIGNKANGYTTEYSASVKGRFTISRDKSQSILYLQMNTLRAEDSATYYCTRDRGLRFYFDYWGQGTTVTVSSGGGGSGGGGSGGGGSDIELTQSPAILSASPGEKVTMTCRASSSVTYIHWYQQKPGSSPKSWIYATSNLASGVPARFSGSGSGTSYSLTISRVEAEDAATYYCQHWSSKPPTFGGGTKLEIKSGGGGSDVQLVQSGAEVKKPGASVKVSCKASGYTFTRYTMHWVRQAPGQGLEWIGYINPSRGYTNYADSVKGRFTITTDKSTSTAYMELSSLRSEDTATYYCARYYDDHYCLDYWGQGTTVTVSSGEGTSTGSGGSGGSGGADDIVLTQSPATLSLSPGERATLSCRASQSVSYMNWYQQKPGKAPKRWIYDTSKVASGVPARFSGSGSGTDYSLTINSLEAEDAATYYCQQWSSNPLTFGGGTKVEIK
notes: Bispecific single chain antibody; also called CEA I-HL

What was measured:
[1] = biological target: T1, soluble human CEA antigen; test: refers to the ELISA of FIG. 2
[2] = biological target: T1, soluble human CEA antigen; test: direct ELISA, biotinylated soluble CEA on streptavidin plate; 0.5 and 5 ug/ml
Method: The direct ELISA to determine the specificity of CEA×CD3 bispecific single chain antibody against soluble human CEA was carried out according to standard procedures. Briefly, 50 μl/well PBS or soluble biotinylated human CEA (Abcam; 5 μg/ml in 1×PBS) were immobilized on a 96-well streptavidin-coated ELISA plate (Nunc) by incubating at 4° C. for about 16 hours. After washing with 200 μl water per well 200 μl of blocking solution (PBS/3% BSA) was added. After blocking for 1 h at room temperature the blocking solution was removed. All subsequent washing (200 μl/well of 1×PBS/0.05% (v/v) Tween20) and incubation steps were performed at room temperature. After washing once, the CEAI VHVL×SEQ ID NO.77 VHVL (SEQ ID NO. 8; anti-CEA part derived from mAb A5B7), CEAII VHVL×SEQ ID NO.77 VHVL (SEQ ID NO. 10; anti-CEA part derived from mAb T84.66), and CEAIII VHVL×SEQ ID NO.77 VHVL (SEQ ID NO. 14; anti-CEA part derived from mAb MFE-23) bispecific single chain antibodies, and mouse monoclonal antibody CEA/CD66 Ab-3 (Col-1; Dunn) were incubated in different concentrations (0.5 μg/ml and 5 μg/ml in 1×PBS; 50 μl/well) for 1 hour. 1×PBS (50 μl/well) was added as a control for unspecific binding. 3 washing steps were followed by adding 50 μl/well Penta-His IgG (Qiagen; 2 μg/ml in 1×PBS) for detection of the His-tagged bispecific single chain antibodies. Subsequently, the wells were washed 3 times and incubated with 50 μl of a horseradish peroxidase-labelled goat anti-mouse Fc gamma-specific antibody (Jackson ImmuneResearch; 1:1000 in 1×PBS) for 1 hour. After washing 3 times the ELISA was developed by adding ABTS substrate solution (Roche) and the absorbance was measured at a wavelength of 405 nm.

[3] = biological target: T1, soluble human CEA antigen; test: refers to Examples 2 and 3 (flow cytometry, ELISA)

Binder	binding result [1]	binding result [2]	other results
B1	binds		
B2	binds		
B3		binds	
B4		binds	
B5			binding result [3]: binds
B6	binds		
B7		binds	
